This test deals with T1, human interleukin-6 (human, UniProt P05231 30-212).
T1 construct: also called hIL-6; IL-6
The test is described as follows: phage ELISA, 96-well plate coated with IL-6 and BSA. (An ELISA detects its analyte on a solid surface through an enzyme-linked reagent.)

B1: r-B10 (designed binder)
chain: ETITVSTPIKQIFPDDAFAETIKANLKKKSVTDAVTQNELNSIDQIIANNSDIKSVQGIQYLPNVRYLALGGNKLHDISALKELTNLTYLVLDPNQLQSLPNGVFDKLTNLKELSLWTNQLQSLPDGVFDKLTNLTYLNLAHNQLQSLPKGVFDKLTNLTELDLSYNQLQSLPEGVFDKLTQLKDLRLYQNQLKSVPDGVFDRLTSLQYIWLHDNPWDCTCPGIRYLSEWINKHSGVVRNSAGSVAPDSAKCSGSGKPVRSIICPT
notes: on phage in the ELISA
For B1, the “OD450 on IL-6 relative to BSA” value is not below 10 fold.

B2: r-F7 (designed binder)
chain: B1 chain
notes: on phage in the ELISA
On to B2, for which the “OD450 on IL-6 relative to BSA” value was not below 10 fold.

Values taken from patent US20150133308A1 (KOREA ADVANCED INSTITUTE OF SCIENCE AND TECHNOLOGY, published 2015).
